In paper PMC5957452, “Structural basis for overhang excision and terminal unwinding of DNA duplexes by TREX1” (PLoS Biology, 2018):

Molecular target: the molecule itself
Test: crystal structure; TREX1 (15-25 mg/mL) in 300 mM NaCl, 50 mM Tris-HCl pH 7.0 mixed with DNA substrates at molar ratio 1:1.5; four TREX1-DNA complex crystals, TREX1 dimer in the asymmetric unit

B1: Three prime repair exonuclease 1 (TREX1), mouse, residues 1-242 (C-terminal transmembrane domain truncated) (enzyme, Mus musculus, UniProt Q91XB0 1-242, looked up)
chain: MGSQTLPHGHMQTLIFLDLEATGLPSSRPEVTELCLLAVHRRALENTSISQGHPPPVPRPPRVVDKLSLCIAPGKACSPGASEITGLSKAELEVQGRQRFDDNLAILLRAFLQRQPQPCCLVAHNGDRYDFPLLQTELARLSTPSPLDGTFCVDSIAALKALEQASSPSGNGSRKSYSLGSIYTRLYWQAPTDSHTAEGDVLTLLSICQWKPQALLQWVDEHARPFSTVKPMYGTPATTGTT
notes: TREX1, Mus musculus, residues 1-242, subcloned into the BamHI/XhoI site of pET28a; C-terminal transmembrane domain truncated; His-tagged or non-His-tagged (thrombin-treated) TREX1 was used for crystallization; Crystals also hold DNA substrates and Mg2+; also called mTREX1; wild-type TREX1; source: E. coli BL21-CodonPlus(DE3)-RIPL or Rosetta2(DE3)pLysS, purified (Ni-NTA, HiTrap Heparin, Superdex …)
B1: binds.
